# Source: patent US20210388087A1 (Chugai, published 2021)
# Biological target: T1, Human CD137 ECD (human)
# T1 construct: also called 4-1BB
# Experiment: single mutant vs template dBBDu183H
# T1 sequence (chain, as listed by the source limits assumed): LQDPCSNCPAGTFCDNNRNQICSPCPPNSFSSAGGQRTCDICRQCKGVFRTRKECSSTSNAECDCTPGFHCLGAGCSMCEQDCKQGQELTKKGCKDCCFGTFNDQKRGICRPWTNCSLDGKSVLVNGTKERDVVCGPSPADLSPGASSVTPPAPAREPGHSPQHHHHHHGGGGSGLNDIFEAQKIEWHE
row,Binder,fold change of affinity [fold]
1,"H183/L072 VH K52R (antibody, name in Kabat numbering, V domains shown) VH: QVQLVESGGGLVQPGRSLRLSCAASGFTFSNAWMHWVRQAPGKGLEWVAQIRDKGNAYAAYYAPSVKGRFTISRDDSKNSIYLQMNSLKTEDTAVYYCHYVHYASASTVLPAFGVDAWGQGTTVTVSS VL: DIVMTQSPLSLPVTPGEPASISCQASQELVHMNRNTYLHWYQQKPGQAPRLLIYKVSNRFPGVPDRFSGSGSGTDFTLKISRVEAEDVGVYYCAQGTSVPFTFGQGTKLEIK",0.2
2,"H183/L072 VH K52bW (antibody, name in Kabat numbering, V domains shown) VH: QVQLVESGGGLVQPGRSLRLSCAASGFTFSNAWMHWVRQAPGKGLEWVAQIKDWGNAYAAYYAPSVKGRFTISRDDSKNSIYLQMNSLKTEDTAVYYCHYVHYASASTVLPAFGVDAWGQGTTVTVSS VL: DIVMTQSPLSLPVTPGEPASISCQASQELVHMNRNTYLHWYQQKPGQAPRLLIYKVSNRFPGVPDRFSGSGSGTDFTLKISRVEAEDVGVYYCAQGTSVPFTFGQGTKLEIK",0.9
3,"H183/L072 VH K52bT (antibody, name in Kabat numbering, V domains shown) VH: QVQLVESGGGLVQPGRSLRLSCAASGFTFSNAWMHWVRQAPGKGLEWVAQIKDTGNAYAAYYAPSVKGRFTISRDDSKNSIYLQMNSLKTEDTAVYYCHYVHYASASTVLPAFGVDAWGQGTTVTVSS VL: DIVMTQSPLSLPVTPGEPASISCQASQELVHMNRNTYLHWYQQKPGQAPRLLIYKVSNRFPGVPDRFSGSGSGTDFTLKISRVEAEDVGVYYCAQGTSVPFTFGQGTKLEIK",0.1
4,"H183/L072 VH K52bA (antibody, name in Kabat numbering, V domains shown) VH: QVQLVESGGGLVQPGRSLRLSCAASGFTFSNAWMHWVRQAPGKGLEWVAQIKDAGNAYAAYYAPSVKGRFTISRDDSKNSIYLQMNSLKTEDTAVYYCHYVHYASASTVLPAFGVDAWGQGTTVTVSS VL: DIVMTQSPLSLPVTPGEPASISCQASQELVHMNRNTYLHWYQQKPGQAPRLLIYKVSNRFPGVPDRFSGSGSGTDFTLKISRVEAEDVGVYYCAQGTSVPFTFGQGTKLEIK",1
5,"H183/L072 VH K52bL (antibody, name in Kabat numbering, V domains shown) VH: QVQLVESGGGLVQPGRSLRLSCAASGFTFSNAWMHWVRQAPGKGLEWVAQIKDLGNAYAAYYAPSVKGRFTISRDDSKNSIYLQMNSLKTEDTAVYYCHYVHYASASTVLPAFGVDAWGQGTTVTVSS VL: DIVMTQSPLSLPVTPGEPASISCQASQELVHMNRNTYLHWYQQKPGQAPRLLIYKVSNRFPGVPDRFSGSGSGTDFTLKISRVEAEDVGVYYCAQGTSVPFTFGQGTKLEIK",0.5
6,"H183/L072 VH K52bG (antibody, name in Kabat numbering, V domains shown) VH: QVQLVESGGGLVQPGRSLRLSCAASGFTFSNAWMHWVRQAPGKGLEWVAQIKDGGNAYAAYYAPSVKGRFTISRDDSKNSIYLQMNSLKTEDTAVYYCHYVHYASASTVLPAFGVDAWGQGTTVTVSS VL: DIVMTQSPLSLPVTPGEPASISCQASQELVHMNRNTYLHWYQQKPGQAPRLLIYKVSNRFPGVPDRFSGSGSGTDFTLKISRVEAEDVGVYYCAQGTSVPFTFGQGTKLEIK",0.9
7,"H183/L072 VH K52bF (antibody, name in Kabat numbering, V domains shown) VH: QVQLVESGGGLVQPGRSLRLSCAASGFTFSNAWMHWVRQAPGKGLEWVAQIKDFGNAYAAYYAPSVKGRFTISRDDSKNSIYLQMNSLKTEDTAVYYCHYVHYASASTVLPAFGVDAWGQGTTVTVSS VL: DIVMTQSPLSLPVTPGEPASISCQASQELVHMNRNTYLHWYQQKPGQAPRLLIYKVSNRFPGVPDRFSGSGSGTDFTLKISRVEAEDVGVYYCAQGTSVPFTFGQGTKLEIK",0.7
8,"H183/L072 VH K52bN (antibody, name in Kabat numbering, V domains shown) VH: QVQLVESGGGLVQPGRSLRLSCAASGFTFSNAWMHWVRQAPGKGLEWVAQIKDNGNAYAAYYAPSVKGRFTISRDDSKNSIYLQMNSLKTEDTAVYYCHYVHYASASTVLPAFGVDAWGQGTTVTVSS VL: DIVMTQSPLSLPVTPGEPASISCQASQELVHMNRNTYLHWYQQKPGQAPRLLIYKVSNRFPGVPDRFSGSGSGTDFTLKISRVEAEDVGVYYCAQGTSVPFTFGQGTKLEIK",0.2
9,"H183/L072 VH K52Y (antibody, name in Kabat numbering, V domains shown) VH: QVQLVESGGGLVQPGRSLRLSCAASGFTFSNAWMHWVRQAPGKGLEWVAQIYDKGNAYAAYYAPSVKGRFTISRDDSKNSIYLQMNSLKTEDTAVYYCHYVHYASASTVLPAFGVDAWGQGTTVTVSS VL: DIVMTQSPLSLPVTPGEPASISCQASQELVHMNRNTYLHWYQQKPGQAPRLLIYKVSNRFPGVPDRFSGSGSGTDFTLKISRVEAEDVGVYYCAQGTSVPFTFGQGTKLEIK",0
10,"H183/L072 VH K64A (antibody, name in Kabat numbering, V domains shown) VH: QVQLVESGGGLVQPGRSLRLSCAASGFTFSNAWMHWVRQAPGKGLEWVAQIKDKGNAYAAYYAPSVAGRFTISRDDSKNSIYLQMNSLKTEDTAVYYCHYVHYASASTVLPAFGVDAWGQGTTVTVSS VL: DIVMTQSPLSLPVTPGEPASISCQASQELVHMNRNTYLHWYQQKPGQAPRLLIYKVSNRFPGVPDRFSGSGSGTDFTLKISRVEAEDVGVYYCAQGTSVPFTFGQGTKLEIK",1.2
11,"H183/L072 VH K52bQ (antibody, name in Kabat numbering, V domains shown) VH: QVQLVESGGGLVQPGRSLRLSCAASGFTFSNAWMHWVRQAPGKGLEWVAQIKDQGNAYAAYYAPSVKGRFTISRDDSKNSIYLQMNSLKTEDTAVYYCHYVHYASASTVLPAFGVDAWGQGTTVTVSS VL: DIVMTQSPLSLPVTPGEPASISCQASQELVHMNRNTYLHWYQQKPGQAPRLLIYKVSNRFPGVPDRFSGSGSGTDFTLKISRVEAEDVGVYYCAQGTSVPFTFGQGTKLEIK",0.8
12,"H183/L072 VH K52bE (antibody, name in Kabat numbering, V domains shown) VH: QVQLVESGGGLVQPGRSLRLSCAASGFTFSNAWMHWVRQAPGKGLEWVAQIKDEGNAYAAYYAPSVKGRFTISRDDSKNSIYLQMNSLKTEDTAVYYCHYVHYASASTVLPAFGVDAWGQGTTVTVSS VL: DIVMTQSPLSLPVTPGEPASISCQASQELVHMNRNTYLHWYQQKPGQAPRLLIYKVSNRFPGVPDRFSGSGSGTDFTLKISRVEAEDVGVYYCAQGTSVPFTFGQGTKLEIK",0.5
13,"H183/L072 VH K52bY (antibody, name in Kabat numbering, V domains shown) VH: QVQLVESGGGLVQPGRSLRLSCAASGFTFSNAWMHWVRQAPGKGLEWVAQIKDYGNAYAAYYAPSVKGRFTISRDDSKNSIYLQMNSLKTEDTAVYYCHYVHYASASTVLPAFGVDAWGQGTTVTVSS VL: DIVMTQSPLSLPVTPGEPASISCQASQELVHMNRNTYLHWYQQKPGQAPRLLIYKVSNRFPGVPDRFSGSGSGTDFTLKISRVEAEDVGVYYCAQGTSVPFTFGQGTKLEIK",1

# Second part, the binder after the results:
row,fold change of affinity [fold],Binder
1,0.7,"H183/L072 VH K52bH (antibody, name in Kabat numbering, V domains shown) VH: QVQLVESGGGLVQPGRSLRLSCAASGFTFSNAWMHWVRQAPGKGLEWVAQIKDHGNAYAAYYAPSVKGRFTISRDDSKNSIYLQMNSLKTEDTAVYYCHYVHYASASTVLPAFGVDAWGQGTTVTVSS VL: DIVMTQSPLSLPVTPGEPASISCQASQELVHMNRNTYLHWYQQKPGQAPRLLIYKVSNRFPGVPDRFSGSGSGTDFTLKISRVEAEDVGVYYCAQGTSVPFTFGQGTKLEIK"
2,1.2,"H183/L072 VH K52bR (antibody, name in Kabat numbering, V domains shown) VH: QVQLVESGGGLVQPGRSLRLSCAASGFTFSNAWMHWVRQAPGKGLEWVAQIKDRGNAYAAYYAPSVKGRFTISRDDSKNSIYLQMNSLKTEDTAVYYCHYVHYASASTVLPAFGVDAWGQGTTVTVSS VL: DIVMTQSPLSLPVTPGEPASISCQASQELVHMNRNTYLHWYQQKPGQAPRLLIYKVSNRFPGVPDRFSGSGSGTDFTLKISRVEAEDVGVYYCAQGTSVPFTFGQGTKLEIK"
3,0.8,"H183/L072 VH K52bI (antibody, name in Kabat numbering, V domains shown) VH: QVQLVESGGGLVQPGRSLRLSCAASGFTFSNAWMHWVRQAPGKGLEWVAQIKDIGNAYAAYYAPSVKGRFTISRDDSKNSIYLQMNSLKTEDTAVYYCHYVHYASASTVLPAFGVDAWGQGTTVTVSS VL: DIVMTQSPLSLPVTPGEPASISCQASQELVHMNRNTYLHWYQQKPGQAPRLLIYKVSNRFPGVPDRFSGSGSGTDFTLKISRVEAEDVGVYYCAQGTSVPFTFGQGTKLEIK"
4,0.8,"H183/L072 VH K52bS (antibody, name in Kabat numbering, V domains shown) VH: QVQLVESGGGLVQPGRSLRLSCAASGFTFSNAWMHWVRQAPGKGLEWVAQIKDSGNAYAAYYAPSVKGRFTISRDDSKNSIYLQMNSLKTEDTAVYYCHYVHYASASTVLPAFGVDAWGQGTTVTVSS VL: DIVMTQSPLSLPVTPGEPASISCQASQELVHMNRNTYLHWYQQKPGQAPRLLIYKVSNRFPGVPDRFSGSGSGTDFTLKISRVEAEDVGVYYCAQGTSVPFTFGQGTKLEIK"
5,0.4,"H183/L072 VH K52bP (antibody, name in Kabat numbering, V domains shown) VH: QVQLVESGGGLVQPGRSLRLSCAASGFTFSNAWMHWVRQAPGKGLEWVAQIKDPGNAYAAYYAPSVKGRFTISRDDSKNSIYLQMNSLKTEDTAVYYCHYVHYASASTVLPAFGVDAWGQGTTVTVSS VL: DIVMTQSPLSLPVTPGEPASISCQASQELVHMNRNTYLHWYQQKPGQAPRLLIYKVSNRFPGVPDRFSGSGSGTDFTLKISRVEAEDVGVYYCAQGTSVPFTFGQGTKLEIK"
6,1.1,"H183/L072 VH K64I (antibody, name in Kabat numbering, V domains shown) VH: QVQLVESGGGLVQPGRSLRLSCAASGFTFSNAWMHWVRQAPGKGLEWVAQIKDKGNAYAAYYAPSVIGRFTISRDDSKNSIYLQMNSLKTEDTAVYYCHYVHYASASTVLPAFGVDAWGQGTTVTVSS VL: DIVMTQSPLSLPVTPGEPASISCQASQELVHMNRNTYLHWYQQKPGQAPRLLIYKVSNRFPGVPDRFSGSGSGTDFTLKISRVEAEDVGVYYCAQGTSVPFTFGQGTKLEIK"
7,0.6,"H183/L072 VH K52bV (antibody, name in Kabat numbering, V domains shown) VH: QVQLVESGGGLVQPGRSLRLSCAASGFTFSNAWMHWVRQAPGKGLEWVAQIKDVGNAYAAYYAPSVKGRFTISRDDSKNSIYLQMNSLKTEDTAVYYCHYVHYASASTVLPAFGVDAWGQGTTVTVSS VL: DIVMTQSPLSLPVTPGEPASISCQASQELVHMNRNTYLHWYQQKPGQAPRLLIYKVSNRFPGVPDRFSGSGSGTDFTLKISRVEAEDVGVYYCAQGTSVPFTFGQGTKLEIK"
8,0.6,"H183/L072 VH K52bM (antibody, name in Kabat numbering, V domains shown) VH: QVQLVESGGGLVQPGRSLRLSCAASGFTFSNAWMHWVRQAPGKGLEWVAQIKDMGNAYAAYYAPSVKGRFTISRDDSKNSIYLQMNSLKTEDTAVYYCHYVHYASASTVLPAFGVDAWGQGTTVTVSS VL: DIVMTQSPLSLPVTPGEPASISCQASQELVHMNRNTYLHWYQQKPGQAPRLLIYKVSNRFPGVPDRFSGSGSGTDFTLKISRVEAEDVGVYYCAQGTSVPFTFGQGTKLEIK"
